# In US20240327502A1 (Merck Sharp & Dohme, published 2024):
# B1: M2E01 (antibody, V domains shown)
# VH: QLQLQESGPGLVKPSETLSLTCTVSGGSISSSTYYWGWIRQPPGKGLEWIGTIYYSGSTDYNPSLKSRLTISVDTSKNQFSLRLRSVTAADTAVYYCARLVSPYDQFDYWGQGTLVTVSS
# VL: DIQMTQSPSSLSASVGDRVTITCRASQTITTYLSWYLQKPGKAPKLLIYAASSWQSGVPSRFSGSGSGTDFTLTISSLQPEDFATYYCQQSYSTPYTFGQGTKLEIK
# notes: IgG
# B2: M2B04 (antibody, V domains shown)
# VH: QVQLVQSGPEVKKPGASVKVSCKASGYSITTYGIDWVRQAPGQGLEWIGWSSAHTGNTNYAEKFQGRVTMTTDTSTYTTYMELRSLKSDDTAVYYCAMGAYTSSRNWFDPWGQGTLVIVSS
# VL: EIVLTQSPATLSLSPGERATLSCRASQNINNFLAWYQQKAGQAPRLLIYDASNRATGIPGRFSGSGSGTDFTLTISSLEPEDFAVYYCQQRANWPLTFGGGTKVEVK
# notes: IgG
# B3: M2E07 (antibody, V domains shown)
# VH: EVQLVESGGGLVQTGGSLRLACAASGFTFSSYAMSWVRQAPGKGLEWVSTITESGDDAYYADSVKGRLTISRDNSKNTLFLHLNGLRSEDTARYYCAKDMGLYKSSWYGNFFYYYYMDVWGEGTTVTVSS
# VL: QSALTQPASVSGSPGQSITISCTGSSSNIGSFDLISWYQQHPGKAPKFIIYEGDKRPSGVSYRFSGSKSGSTASLTISGLQAEDEAYYYCCSYARSRTLVFGGGTKVTVL
# notes: IgG
# B4: M3B04 (antibody, V domains shown)
# VH: QVQLQESGPGLVKPSETVSLTCTVSGGSISSNNWWSWVRQSPGKGLEWIGEIYHSGSTNFNPSLKSRVTISVDKSKNHFSLKLGSLTAADTAVYYCARRPNDYGDYSYYYYYYMDVWGKGTTVTVSS
# VL: EIVLTQSPATLSLSPGESATLSCRASQSINRNLAWYQQKPGQAPRLLIYDASNRATGIPARFSGSGSGTDFTLTISSLEPEDFAVYYCQQRSHWVTFGQGTRLEIK
# notes: IgG
# B5: M3E09 (antibody, V domains shown)
# VH: EVQLVESGGGVVRPGGSLRLSCAASGFRFDDYAMNWVRQAPGKGLEWVSGINWIGGTTKYADSVKGRFTISRDNTKNSLYLQMNSLRAEDTALYYCARGVGYYYYYMDVWGRGTTVTVSS
# VL: EIVLTQSPGTLSLSPGERATLSCRATQSVSSNYLAWYQQKPGQAPRLLIYDASSRAIGIPDRFSGSGSGTDFTLTISRLESEDFAVYYCQQYGSSPETFGQGTKVEIK
# notes: IgG
# B6: M3A12 (antibody, V domains shown)
# VH: QVQLQESGPQLVKPSQTLSLTCTVSGDSISSSDYCWSWIRQSPGKGLEWIGHSVYSGDTQYNPSLKSRLSISVDTSKNQFSLRLRSVTAADTAVYYCARGNDFWSGSFDYWGQGALVIVSS
# VL: DIQMTQSPSSLSASVGDRVTITCRASQSIGTYLNWYQQKPGKAPKVLIYAASSLQSGVPSRFSGRGSGTDFTLTVSSLQPEDFASYYCQQSYTKPYTFGQGTKLEIK
# notes: IgG
# B7: M3A04 (antibody, V domains shown)
# VH: QVQLVESGGGVVQPGRSLRLSCAASGLTFSTYVMHWVRQAPGKGLEWVAVISYDGTNEHYADSVKGRFTISRDNSKNTLYLQMNSLRPEDTAVYYCARGTADYDVWSGSAWGGFDYWGQGTLVTVSS
# VL: DIQMTQSPSSLSASVGDRVTITCRASQSISSYLNWYQQKPGKAPKLLMYTVSSLPSGVPSRFSGSGSGTDFTLTISSLQPEDFATYYCQQSYNIPYTFGQGTKLEIK
# notes: IgG
# B8: M3B12 (antibody, V domains shown)
# VH: QVQLVESGGGVVQPGGSLRLSCAASGFTFSSYGMHWVRQAPGKGLEWVAFIRYDGSNKYYADSVKGRFTISRDNSKNTLYLQMNSLRAEDTAVYYCAKDSGSYYYYYYMDVWGKGTTVTVSS
# VL: not shown
# notes: IgG
# B9: M3A03 (antibody, V domains shown)
# VH: QVQLVQSGAEVKKPGASVKVSCKASAYTFTSYGITWVRQAPGQGLEWMGWISAYRGNTKYAQKLQGRVTMTTDTSTSTASMELRSLRSDDTAVYYCARTSYYDSSYYPIDYWGQGTLVTVSS
# VL: SYVLTQPPSVSVAPGQTARITCGGNNIGSKSVQWYQQKPGQAPVLVVYDDSDRPSGIPERFSGSNSGNTATLTISRVEAGDEADYYCQVWDSSGDRVVFGGGTKLTVL
# notes: IgG
# B10: M2D02 (antibody, V domains shown)
# VH: QVQLVQSGAEVKKPGSSVKVSCKASGGTLTRYTISWVRQAPGQGLEWMGRIIPFLDIANYAPRFQGRVTMTADKSTSTAYMELSSLTSQDTAIYYCARDHSGNYFDLWGQGTLVTVSS
# VL: EIVMTQSPATLSVSPGERATLSCRASQSVTSNLAWYQRKPGQAPRLLIYGASTGATDIPGRFSGSGSGTEFTLTISGLQSEDFAVYYCQQYDHWPRTFGQGTKVEIK
# notes: IgG
# B11: M2E08 (antibody, V domains shown)
# VH: EVQLVESGGDLVLPGGSLRLSCEASGFMFSSYAMNWVRQAPGKGLERVSGISGSGGNTYYADSVKGRFTISRDNSKNIVYLQMNSLRAEDTAVYYCAKDLGNDYFYYIDVWGKGTTVMVSS
# VL: QSVLTQPPSVSGAPGQRVTISCTGTNFNIGAGYDVQWYQQLPGAAPKLLIHGNTYRPSGVPDRFSGSKSGTSASLAITGLQAEDEADYYCQSYDSSLSMVFGGGTKLTVL
# notes: IgG
# B12: M3D03 (antibody, V domains shown)
# VH: QVQLVQSGAEVKKPGASVKVSCKASGYTFTSYGISWVRQAPGQGLEWMGWISAYNGNTNYAQKLQGRVTMTTDTSTSTAYMELRSLRSDDTAVYYCARDAPFGRDDGYGMDVWGQGTTVTVSS
# VL: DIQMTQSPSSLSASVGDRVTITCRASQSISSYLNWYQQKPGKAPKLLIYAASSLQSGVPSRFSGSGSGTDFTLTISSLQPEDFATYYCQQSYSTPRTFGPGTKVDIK
# notes: IgG
# B13: M4B11 (antibody, V domains shown)
# VH: QVQLVQSGTEVQTPGASVKVSCKTSGYIFTGYFMHWVRQAPGQGFEWMGWVNPYSGATTYAQKFQGRVTMTRDTSISTVYMELSRLTSDDTAIYYCAKDTSNSGPDLLEHWGQGTLVIVSS
# VL: EIVLTQSPATLSLSPGERATLSCRASQSISNFLVWYQRKPGQAPRLLIFDVSKRATGIPTRFSGSGSGTDFTLTISSLEPEDFAVYYCQQRSNWPPGYTFGQGTKLEIK
# Target: T1, Processed stabilized hMPV PreF trimer (115BV) (human metapneumovirus, strain B2)
# T1 construct: also called Processed hMPV PreF trimer; processed PreF
# Experiment: BLI, mAb on anti-human Fc sensor
row,Binder,Octet binding response [nm]
1,B1,0.126
2,B2,0.125
3,B3,0.0476
4,B4,0.0297
5,B5,0.0948
6,B6,0.0766
7,B7,0.0846
8,B8,0.0102
9,B9,0.0409
10,B10,0.0468
11,B11,0.0781
12,B12,0.0286

# Target: T2, Unprocessed hMPV PreF trimer (human metapneumovirus, strain B2)
# T2 construct: also called Unprocessed hMPV WT PreF trimer; unprocessed hMPV PreF trimeric antigen
# Experiment: BLI, mAb on anti-human Fc sensor
row,Binder,Octet binding response [nm]
1,B1,0.408
2,B2,0.328
3,B3,0.216
4,B4,0.177
5,B5,0.226
6,B6,0.31
7,B7,0.373
8,B8,0.157
9,B9,0.181
10,B10,0.216
11,B11,0.349
12,B12,0.242

# Target: T3, hMPV PostF trimer (human metapneumovirus, strain B2)
# T3 construct: also called MPV PostF (dPFv1)
# Experiment: BLI, mAb on anti-human Fc sensor
row,Binder,Octet binding response [nm]
1,B1,-0.016
2,B2,0.0152
3,B3,0.0137
4,B4,0.446
5,B5,-0.0506
6,B6,0.0469
7,B7,-0.0261
8,B8,0.417
9,B9,0.568
10,B10,0.541
11,B11,-0.0233
12,B12,-0.054

# Target: T1, Processed stabilized hMPV PreF trimer …
# Experiment: BLI, ratio to unprocessed PreF trimer
row,Binder,processed/unprocessed PreF trimer binding ratio
1,B1,0.31
2,B2,0.38
3,B3,0.22
4,B4,0.17
5,B5,0.42
6,B6,0.25
7,B7,0.23
8,B8,0.07
9,B9,0.23
10,B10,0.22
11,B11,0.22
12,B12,0.12

# Target: F protein of hMPV A virus (human metapneumovirus subtype A)
# Experiment: cell-based or functional assay
row,Binder,PRNT IC50 [mg/L]
1,B13,0.652

# Target: F protein of hMPV B virus (human metapneumovirus subtype B)
# Experiment: cell-based or functional assay
row,Binder,PRNT IC50 [mg/L]
1,B13,0.238
